From patent US11352401

B1: TEREWADEW (SEQ ID NO: 482) (peptide)
peptide: TEREWADEW
B2: AEVPTGVII (SEQ ID NO: 360) (peptide)
peptide: AEVPTGVII
B3: EDAQGHIW (SEQ ID NO: 331) (peptide)
peptide: EDAQGHIW
B4: SEGSEPALLHSW (SEQ ID NO: 338) (peptide)
peptide: SEGSEPALLHSW
B5: HEFSSPSHL (SEQ ID NO: 342) (peptide)
peptide: HEFSSPSHL
B6: EEIERFFKL (SEQ ID NO: 369) (peptide)
peptide: EEIERFFKL
B7: MEMQKSPVF (SEQ ID NO: 373) (peptide)
peptide: MEMQKSPVF
B8: KEGDLGGKQW (SEQ ID NO: 330) (peptide)
peptide: KEGDLGGKQW
B9: SEFMQVIF (SEQ ID NO: 323) (peptide)
peptide: SEFMQVIF
B10: GECDVFKEIL (SEQ ID NO: 350) (peptide)
peptide: GECDVFKEIL
B11: EEIEGKGSFTYF (SEQ ID NO: 341) (peptide)
peptide: EEIEGKGSFTYF
B12: AEIQGNINHV (SEQ ID NO: 348) (peptide)
peptide: AEIQGNINHV
B13: YEIEARNQVF (SEQ ID NO: 327) (peptide)
peptide: YEIEARNQVF
B14: AELDKLTSV (SEQ ID NO: 363) (peptide)
peptide: AELDKLTSV
B15: EEGRVYLF (SEQ ID NO: 356) (peptide)
peptide: EEGRVYLF
B16: SEIEQEIGSL (SEQ ID NO: 478) (peptide)
peptide: SEIEQEIGSL
B17: TDSIHAWTF (SEQ ID NO: 324) (peptide)
peptide: TDSIHAWTF
B18: EEVNYINTF (SEQ ID NO: 351) (peptide)
peptide: EEVNYINTF
B19: AETLSTIQI (SEQ ID NO: 333) (peptide)
peptide: AETLSTIQI
B20: SEKGVIQVY (SEQ ID NO: 362) (peptide)
peptide: SEKGVIQVY
B21: NEHPSNNW (SEQ ID NO: 329) (peptide)
peptide: NEHPSNNW
B22: AEQDMRELTY (SEQ ID NO: 349) (peptide)
peptide: AEQDMRELTY
B23: GEVHPSEMI (SEQ ID NO: 367) (peptide)
peptide: GEVHPSEMI
B24: EENDQSTHKW (SEQ ID NO: 483) (peptide)
peptide: EENDQSTHKW
B25: QEMQHFLGL (SEQ ID NO: 326) (peptide)
peptide: QEMQHFLGL
B26: RELENCFQIQ (SEQ ID NO: 357) (peptide)
peptide: RELENCFQIQ
B27: RELQHEHSL (SEQ ID NO: 481) (peptide)
peptide: RELQHEHSL
B28: QENSYQSRL (SEQ ID NO: 477) (peptide)
peptide: QENSYQSRL
B29: AEIQPQTQV (SEQ ID NO: 479) (peptide)
peptide: AEIQPQTQV
B30: AEMLESVIKNY (SEQ ID NO: 321) (peptide)
peptide: AEMLESVIKNY
B31: ALNPYQYQY (SEQ ID NO: 347) (peptide)
peptide: ALNPYQYQY
B32: AETPIQNVI (SEQ ID NO: 364) (peptide)
peptide: AETPIQNVI
B33: EEATGQFHVY (SEQ ID NO: 344) (peptide)
peptide: EEATGQFHVY
B34: TEDPTILRI (SEQ ID NO: 354) (peptide)
peptide: TEDPTILRI
B35: SLLTHIPTA (SEQ ID NO: 105) (peptide)
peptide: SLLTHIPTA
B36: FLSTVTSV (SEQ ID NO: 126) (peptide)
peptide: FLSTVTSV
B37: GLDGSLVFL (SEQ ID NO: 127) (peptide)
peptide: GLDGSLVFL
B38: FLDPNARPLV (SEQ ID NO: 117) (peptide)
peptide: FLDPNARPLV
B39: RTADITVTV (SEQ ID NO: 119) (peptide)
peptide: RTADITVTV
B40: ILDERQVLL (SEQ ID NO: 114) (peptide)
peptide: ILDERQVLL
B41: GMLDIFWGV (SEQ ID NO: 104) (peptide)
peptide: GMLDIFWGV
B42: SLIDMRGIETV (SEQ ID NO: 391) (peptide)
peptide: SLIDMRGIETV
B43: ALLEMFPEITV (SEQ ID NO: 122) (peptide)
peptide: ALLEMFPEITV
B44: AVLTGLVEV (SEQ ID NO: 113) (peptide)
peptide: AVLTGLVEV
B45: NLWGGQGLLGV (SEQ ID NO: 130) (peptide)
peptide: NLWGGQGLLGV
B46: VLQPFLPSI (SEQ ID NO: 125) (peptide)
peptide: VLQPFLPSI
B47: FSIPEGALVAV (SEQ ID NO: 388) (peptide)
peptide: FSIPEGALVAV
B48: HIMPTVHTV (SEQ ID NO: 390) (peptide)
peptide: HIMPTVHTV
B49: ALSSVLHSI (SEQ ID NO: 118) (peptide)
peptide: ALSSVLHSI
B50: ILLPYLQTL (SEQ ID NO: 393) (peptide)
peptide: ILLPYLQTL
B51: ALVDTLTGI (SEQ ID NO: 121) (peptide)
peptide: ALVDTLTGI
B52: LLQGAIESV (SEQ ID NO: 107) (peptide)
peptide: LLQGAIESV
B53: SVSDGIHSV (SEQ ID NO: 112) (peptide)
peptide: SVSDGIHSV
B54: ALWLVDPLTV (SEQ ID NO: 132) (peptide)
peptide: ALWLVDPLTV
B55: VLMEENSKL (SEQ ID NO: 116) (peptide)
peptide: VLMEENSKL
B56: SLFKDQMEL (SEQ ID NO: 392) (peptide)
peptide: SLFKDQMEL
B57: FLYYPDPVL (SEQ ID NO: 103) (peptide)
peptide: FLYYPDPVL
B58: LLLGSIGLLGV (SEQ ID NO: 109) (peptide)
peptide: LLLGSIGLLGV
B59: LLADFQALL (SEQ ID NO: 110) (peptide)
peptide: LLADFQALL
B60: SVASVLLYL (SEQ ID NO: 124) (peptide)
peptide: SVASVLLYL
B61: MTLPVDAVISV (SEQ ID NO: 133) (peptide)
peptide: MTLPVDAVISV
B62: ALLANLPAV (SEQ ID NO: 120) (peptide)
peptide: ALLANLPAV
B63: LLKEFVQRV (SEQ ID NO: 131) (peptide)
peptide: LLKEFVQRV
B64: FLGTTPTL (SEQ ID NO: 128) (peptide)
peptide: FLGTTPTL
B65: MLLETQDALYV (SEQ ID NO: 115) (peptide)
peptide: MLLETQDALYV
B66: TLMEQPLTTL (SEQ ID NO: 389) (peptide)
peptide: TLMEQPLTTL
B67: VLYDKDAVYV (SEQ ID NO: 129) (peptide)
peptide: VLYDKDAVYV
B68: FIIDTTYPAYV (SEQ ID NO: 106) (peptide)
peptide: FIIDTTYPAYV

Target: T1, HLA-B*44 (human)
T1 construct: MHC monomer made peptide-receptive by UV cleavage of a UV-sensitive ligand; also called peptide-receptive MHC class I monomer
Experiment: UV peptide-exchange ELISA; +++ = yield >50%
Description: Candidate peptides for T cell based therapies according to the present invention were further tested for their MHC binding capacity (affinity). The individual peptide-MHC complexes were produced by UV-ligand exchange, where a UV-sensitive peptide is cleaved upon UV-irradiation, and exchanged with the peptide of interest as analyzed. Only peptide candidates that can effectively bind and stabilize the peptide-receptive MHC molecules prevent dissociation of the MHC complexes. To determine the yield of the exchange reaction, an ELISA was performed based on the detection of the light chain (β2m) of stabilized MHC complexes. The assay was performed as generally described in Rodenko et al. (Rodenko et al., 2006).
96 well MAXISorp plates (NUNC) were coated over night with 2 ug/ml streptavidin in PBS at room temperature, washed 4× and blocked for 1 h at 37° C. in 2% BSA containing blocking buffer. […] Peptide-MHC monomers of the UV-exchange reaction were diluted 100-fold in blocking buffer. Samples were incubated for 1 h at 37° C., washed four times, incubated with 2 ug/ml HRP conjugated anti-β2m for 1h at 37° C., washed again and detected with TMB solution that is stopped with […]. Absorption was measured at 450 nm.

| Binder | peptide exchange yield [%] |
| --- | --- |
| B1 | 50 to 75 |
| B2 | 50 to 75 |
| B3 | 50 to 75 |
| B4 | 50 to 75 |
| B5 | 50 to 75 |
| B6 | 50 to 75 |
| B7 | 50 to 75 |
| B8 | 50 to 75 |
| B9 | 50 to 75 |
| B10 | 50 to 75 |
| B11 | 50 to 75 |
| B12 | 50 to 75 |
| B13 | 50 to 75 |
| B14 | 50 to 75 |
| B15 | 50 to 75 |
| B16 | 50 to 75 |
| B17 | 50 to 75 |

| Binder | peptide exchange yield [%] |
| --- | --- |
| B18 | 50 to 75 |
| B19 | 50 to 75 |
| B20 | 50 to 75 |
| B21 | 50 to 75 |
| B22 | 50 to 75 |
| B23 | 50 to 75 |
| B24 | 50 to 75 |
| B25 | 50 to 75 |
| B26 | 50 to 75 |
| B27 | 50 to 75 |
| B28 | 50 to 75 |
| B29 | 50 to 75 |
| B30 | 50 to 75 |
| B31 | 50 to 75 |
| B32 | 50 to 75 |
| B33 | 50 to 75 |
| B34 | 50 to 75 |

Target: T2, HLA-A*02 (human)
T2 construct: MHC monomer made peptide-receptive by UV cleavage of a UV-sensitive ligand; also called peptide-receptive MHC class I monomer
Experiment: UV peptide-exchange ELISA; ++++ = yield >75%

| Binder | peptide exchange yield [%] |
| --- | --- |
| B35 | > 75 |
| B36 | > 75 |
| B37 | > 75 |
| B38 | > 75 |
| B39 | > 75 |
| B40 | > 75 |
| B41 | > 75 |
| B42 | > 75 |
| B43 | > 75 |
| B44 | > 75 |
| B45 | > 75 |
| B46 | > 75 |
| B47 | > 75 |
| B48 | > 75 |
| B49 | > 75 |
| B50 | > 75 |
| B51 | > 75 |

| Binder | peptide exchange yield [%] |
| --- | --- |
| B52 | > 75 |
| B53 | > 75 |
| B54 | > 75 |
| B55 | > 75 |
| B56 | > 75 |
| B57 | > 75 |
| B58 | > 75 |
| B59 | > 75 |
| B60 | > 75 |
| B61 | > 75 |
| B62 | > 75 |
| B63 | > 75 |
| B64 | > 75 |
| B65 | > 75 |
| B66 | > 75 |
| B67 | > 75 |
| B68 | > 75 |
